Test in all cases: cell-based or functional assay
Experiment [1] deals with T1, MMP9 (human, UniProt P14780 107-457, limits assumed).
For experiment [2], the target named is T2, MMP2 (human, UniProt P08253 30-660).
T2 sequence (looked up): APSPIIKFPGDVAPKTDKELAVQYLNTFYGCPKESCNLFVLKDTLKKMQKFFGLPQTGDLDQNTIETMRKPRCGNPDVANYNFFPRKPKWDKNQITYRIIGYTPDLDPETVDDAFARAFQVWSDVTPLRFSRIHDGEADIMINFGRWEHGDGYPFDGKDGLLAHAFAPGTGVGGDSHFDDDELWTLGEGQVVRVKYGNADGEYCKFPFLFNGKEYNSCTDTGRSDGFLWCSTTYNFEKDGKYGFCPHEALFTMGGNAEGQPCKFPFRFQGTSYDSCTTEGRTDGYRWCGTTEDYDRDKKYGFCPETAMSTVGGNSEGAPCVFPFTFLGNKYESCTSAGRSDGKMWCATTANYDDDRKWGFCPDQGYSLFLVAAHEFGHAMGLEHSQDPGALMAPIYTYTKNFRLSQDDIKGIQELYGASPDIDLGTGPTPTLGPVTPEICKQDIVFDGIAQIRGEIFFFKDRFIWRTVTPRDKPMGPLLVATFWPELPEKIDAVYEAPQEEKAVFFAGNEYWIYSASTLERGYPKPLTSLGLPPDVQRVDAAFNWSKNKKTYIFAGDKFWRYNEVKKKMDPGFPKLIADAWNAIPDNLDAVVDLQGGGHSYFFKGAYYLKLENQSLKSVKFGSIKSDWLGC

Experiment [3] concerns the target TNF alpha converting enzyme (TACE) (UniProt P78536 215-671, limits assumed).
Experiment [4] deals with T1, MMP9. This is another data set of the same source.
Experiment [5] deals with T2, MMP2. The source holds these as a separate data set.

T1 sequence (P14780 107-457 limits assumed): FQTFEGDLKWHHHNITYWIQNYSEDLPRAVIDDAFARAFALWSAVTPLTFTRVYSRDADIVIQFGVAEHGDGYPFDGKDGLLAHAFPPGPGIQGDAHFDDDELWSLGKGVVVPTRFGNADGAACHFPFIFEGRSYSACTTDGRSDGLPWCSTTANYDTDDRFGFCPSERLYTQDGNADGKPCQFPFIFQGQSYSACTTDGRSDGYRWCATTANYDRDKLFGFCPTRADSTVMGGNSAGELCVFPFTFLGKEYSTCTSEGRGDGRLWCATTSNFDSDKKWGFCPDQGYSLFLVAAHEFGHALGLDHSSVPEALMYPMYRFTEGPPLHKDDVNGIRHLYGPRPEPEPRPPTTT
Sequence of TNF alpha converting enzyme (TACE) (P78536 215-671 limits assumed): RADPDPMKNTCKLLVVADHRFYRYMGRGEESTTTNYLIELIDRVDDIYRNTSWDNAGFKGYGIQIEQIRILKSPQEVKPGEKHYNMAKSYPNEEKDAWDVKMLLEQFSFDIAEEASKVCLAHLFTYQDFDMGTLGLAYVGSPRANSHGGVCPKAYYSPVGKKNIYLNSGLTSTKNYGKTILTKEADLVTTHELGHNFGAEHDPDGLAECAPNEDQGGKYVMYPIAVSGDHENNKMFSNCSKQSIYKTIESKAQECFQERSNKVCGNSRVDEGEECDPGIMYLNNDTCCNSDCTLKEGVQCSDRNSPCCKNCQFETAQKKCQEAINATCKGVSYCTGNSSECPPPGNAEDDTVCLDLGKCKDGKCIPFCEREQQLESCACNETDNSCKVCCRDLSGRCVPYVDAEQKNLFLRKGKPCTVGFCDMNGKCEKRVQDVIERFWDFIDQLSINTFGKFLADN

B1: TIMP-3 [H78N, Q80T, K94N, E96T, D110N, K112T, R138T] (SEQ ID NO:26) (other)
chain: CTCSPSHPQDAFCNSDIVIRAKVVGKKLVKEGPFGTLVYTIKQMKMYRGFTKMPNVTYIHTEASESLCGLNLTVNKYQYLLTGRVYNGTMYTGLCNFVERWDQLTLSQRKGLNYTYHLGCNCKIKSCYYLPCFVTSKNECLWTDMLSNFGYPGYQSKHYACIRQKGGYCSWYRGWAPPDKSIINATDP
modifications: 4 engineered N-linked glycosylation sites (# EG, Table 2)
For the molecule B1, the “shift in MMP9 inhibitory activity (fold decrease) as compared to wild-type” value in experiment [1] was 6 fold decrease vs wild-type. The “shift in MMP2 inhibitory activity (fold decrease) as compared to wild-type” value in experiment [2] was 2 fold decrease vs wild-type. For the same molecule, in experiment [3], the “shift in TACE inhibitory activity (fold decrease) as compared to wild-type” value is 0.4 fold decrease vs wild-type. In addition, the “MMP9 EC50 (inhibition of MMP activity, FRET peptide substrate)” value in experiment [4] was found to be 2.5 nM. The “MMP2 EC50 (inhibition of MMP activity, FRET peptide substrate)” value in experiment [5] was found to be 1 nM.

(Values after patent publication US20180030116A1 (Amgen, published 2018).)
